The target in one assay is c-Met (Homo sapiens, UniProt P08581). Nature of the assay: specificity of expressed scFv of huAbF46. Format: binding. To be noted: after expression. The source says: For use in constructing an scFv of the huAbF46 antibody from the heavy and light chain variable regions of the huAbF46 antibody, a gene was designed to have the structure of “VH-linker-VL” for each of the heavy and the light chain variable region, with the linker including the amino acid sequence “[…]” (SEQ ID NO: 54). A polynucleotide sequence (SEQ ID NO: 55) encoding the designed scFv of huAbF46 was synthesized in Bioneer and an expression vector for the polynucleotide had the nucleotide sequence of SEQ ID NO: 56.
Sequence of c-Met (P08581 25-1390): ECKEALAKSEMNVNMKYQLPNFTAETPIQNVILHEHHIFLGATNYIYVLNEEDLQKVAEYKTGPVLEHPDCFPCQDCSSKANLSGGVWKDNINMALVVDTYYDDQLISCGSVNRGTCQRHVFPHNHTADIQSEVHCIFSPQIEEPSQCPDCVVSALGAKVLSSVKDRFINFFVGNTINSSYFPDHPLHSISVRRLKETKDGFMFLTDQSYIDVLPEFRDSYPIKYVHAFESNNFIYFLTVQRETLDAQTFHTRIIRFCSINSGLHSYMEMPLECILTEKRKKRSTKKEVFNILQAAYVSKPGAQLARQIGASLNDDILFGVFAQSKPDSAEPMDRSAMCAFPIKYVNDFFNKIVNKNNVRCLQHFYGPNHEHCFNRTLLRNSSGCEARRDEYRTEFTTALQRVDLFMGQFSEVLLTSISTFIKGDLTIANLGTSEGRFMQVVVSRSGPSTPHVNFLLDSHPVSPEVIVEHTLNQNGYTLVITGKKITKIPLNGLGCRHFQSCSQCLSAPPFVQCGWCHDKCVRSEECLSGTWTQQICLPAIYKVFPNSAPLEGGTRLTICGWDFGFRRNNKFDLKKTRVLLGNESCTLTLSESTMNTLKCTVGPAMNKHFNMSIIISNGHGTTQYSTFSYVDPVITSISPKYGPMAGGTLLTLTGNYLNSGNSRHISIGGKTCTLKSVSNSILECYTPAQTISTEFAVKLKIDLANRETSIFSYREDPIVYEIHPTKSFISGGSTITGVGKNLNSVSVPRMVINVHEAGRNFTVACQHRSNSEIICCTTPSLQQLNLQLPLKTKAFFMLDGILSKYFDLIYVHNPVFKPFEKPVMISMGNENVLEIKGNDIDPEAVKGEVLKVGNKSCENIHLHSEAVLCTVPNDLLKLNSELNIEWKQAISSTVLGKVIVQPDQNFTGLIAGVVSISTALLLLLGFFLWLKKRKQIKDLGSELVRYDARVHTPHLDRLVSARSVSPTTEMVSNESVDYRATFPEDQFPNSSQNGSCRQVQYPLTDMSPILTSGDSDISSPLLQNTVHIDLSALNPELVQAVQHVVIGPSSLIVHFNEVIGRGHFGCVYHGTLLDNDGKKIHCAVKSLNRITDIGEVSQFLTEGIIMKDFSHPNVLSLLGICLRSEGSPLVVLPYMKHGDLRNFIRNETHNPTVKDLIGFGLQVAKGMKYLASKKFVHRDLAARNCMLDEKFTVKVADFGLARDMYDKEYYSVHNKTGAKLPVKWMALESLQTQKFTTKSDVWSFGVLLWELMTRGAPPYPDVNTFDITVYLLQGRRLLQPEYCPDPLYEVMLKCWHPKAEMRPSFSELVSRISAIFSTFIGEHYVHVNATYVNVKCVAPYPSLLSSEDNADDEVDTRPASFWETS

For assay [1], the system named is lung cancer cell line HCC827. Nature of the assay: cell proliferation assay (CellTiter Glo), HCC827. In kind it is cell-based. The following applies: ME22S 1/5 dilutions from 150 nM and/or linsitinib 10 μM, 72 hours, FIGS. 3A, 3B. As for the experimental part: (§1) 72 hours after the treatment with the antibody and/or the inhibitor drug, the number of living cells was counted using a CellTiter Glo assay (Promega, G7573). This assay measures the amount of ATP which reflects metabolism of living cells, thereby counting the number of living cells.
(§2) 72 hours after the co-treatment, the number of living cells was counted by CellTiter Glo assay (Promega, G7573).
A general note: Cellular ATP, detected with luciferase, serves as a proxy for viable cell number.

Assay [2] deals with gastric cancer cell line MKN45. Nature of the assay: cell proliferation assay (CellTiter Glo), MKN45. Format: cell-based. To be noted: ME22S 1/5 dilutions from 10 nM and/or linsitinib 10 μM, 72 hours, FIGS. 4A, 4B. As for the experimental part:
as §1, §2

Assay [3] concerns L3-1Y/IgG2 resistant MKN45re#1 and MKN45re#24 cell lines. As to the kind of experiment: cell proliferation assay (CellTiter Glo), anti-c-Met antibody resistant MKN45. Format: cell-based. As for the experimental part:
To obtain anti-c-Met antibody resistant MKN45 gastric cancer cells, MKN45 gastric cancer cells were administered with L3-1Y/IgG2 for at least 3 months by increasing the administration concentration. The amount of L3-1Y/IgG2 administered was increased from 1 μg/ml to 10 μg/ml, until resistance to L3-1Y/IgG2 is induced. The obtained L3-1Y/IgG2 resistant clones were named as MKN45re#1 and MKN45re#24, respectively.
72 hours after the co-treatment, the number of living cells was counted by CellTiter Glo assay (Promega, G7573). […] For comparison, the same experiment was preformed except that cells were treated with ME22S alone at the 1/5 diluted concentration starting from 10 nM.

Assay [4] deals with gastric cancer cell line SNU5. As to the kind of experiment: cell proliferation assay (CellTiter Glo), SNU5. Format: cell-based. The following applies: ME22S 1/5 dilutions from 60 nM, alone or with linsitinib 10 μM, 72 hours, FIG. 2. On the procedure:
as §1
(§3) 72 hours after the co-treatment, the cell number was measured by CellTiter Glo assay (Promega, G7573).

The subject of assay [5] is gastric cancer cell line SNU668. Nature of the assay: cell proliferation assay (CellTiter Glo), SNU668. In kind it is cell-based. To be noted: ME22S 1/5 dilutions from 60 nM, alone or with linsitinib 10 μM, 72 hours, FIG. 2. On the procedure:
as §1, §3

The values below come from patent US9943596B2, “Combination therapy using dual inhibitor of c-MET and EGFR and IGF-1R inhibitor” (Samsung Electronics Co., Ltd., priority 2014, dated 2018).

B1: scFv of huAbF46: scFv of structure VH-linker-VL from the heavy and light chain variable regions of huAbF46 (protein)
scFv: EVQLVESGGGLVQPGGSLRLSCAASGFTFTDYYMSWVRQAPGKGLEWLGFIRNKANGYTTEYSASVKGRFTISRDNSKNTLYLQMNSLRAEDTAVYYCARDNWFAYWGQGTLVTVSSGLGGLGGGGSGGGGSGGSSGVGSDIQMTQSPSSLSASVGDRVTITCKSSQSLLASGNQNNYLAWHQQKPGKAPKMLIIWASTRVSGVPSRFSGSGSGTDFTLTISSLQPEDFATYYCQQSYSAPLTFGQGTKVEIKR
As to B1, the “specificity to c-Met” value with c-Met is “exhibit specificity to c-Met”.

B2: ME22S: anti-c-Met/anti-EGFR bispecific antibody in which the modified anti-EGFR scFv is fused at the c-terminal of L3-1Y-IgG2 (antibody)
heavy: EVQLVESGGGLVQPGGSLRLSCAASGFTFTDYYMSWVRQAPGKGLEWLGFIRNKANGYTTEYSASVKGRFTISRDNSKNTLYLQMNSLRAEDTAVYYCARDNWFAYWGQGTLVTVSSASTKGPSVFPLAPCSRSTSESTAALGCLVKDYFPEPVTVSWNSGALTSGVHTFPAVLQSSGLYSLSSVVTVPSSNFGTQTYTCNVDHKPSNTKVDKTVERKCCVECPPCPAPPVAGPSVFLFPPKPKDTLMISRTPEVTCVVVDVSHEDPEVQFNWYVDGVEVHNAKTKPREEQFNSTFRVVSVLTVVHQDWLNGKEYKCKVSNKGLPAPIEKTISKTKGQPREPQVYTLPPSREEMTKNQVSLTCLVKGFYPSDIAVEWESNGQPENNYKTTPPMLDSDGSFFLYSKLTVDKSRWQQGNVFSCSVMHEALHNHYTQKSLSLSPGKGGGGSGGGGSEVQLLESGGGLVQPGGSLRLSCAASGFTFSNYDMSWVRQAPGKCLEWVSGISHSSGSKYYADSVKGRFTISRDNSKNTLYLQMNSLRAEDTAVYYCAKDATPRPLKPFDYWGQGTLVTVSSGGGGSGGGGSGGGGSQSVLTQPPSASGTPGQRVTISCTGSSSNIGNNDVSWYQQLPGTAPKLLIYDDNKRPSGVPDRFSGSKSGTSASLAISGLRSEDEADYYCGSWDASLNAYVFGCGTKLTVLG
light: DIQMTQSPSSLSASVGDRVTITCKSSQSLLASGNQNNYLAWYQQKPGKAPKMLIIWASTRVSGVPSRFSGSGSGTDFTLTISSLQPEDFATYYCQQSYSRPYTFGQGTKVEIKRTVAAPSVFIFPPSDEQLKSGTASVVCLLNNFYPREAKVQWKVDNALQSGNSQESVTEQDSKDSTYSLSSTLTLSKADYEKHKVYACEVTHQGLSSPVTKSFNRGEC
For B2, the “cancer cell proliferation inhibition effect” value in assay [1] was “not observed”; in assay [3] (MKN45re#1 (linsitinib 10 μM) or MKN45re#24 (linsitinib 2.5 μM), ME22S 1/5 dilutions from 10 nM, 72 hours, FIG. 5), “no cancer cell proliferation inhibition effect”. In assay [2], the “cancer cell proliferation inhibition” value is “can inhibit proliferation”. Also, the “resistance of the cell line to the antibody” value in assay [3] (anti-c-Met antibody (L3-1Y/IgG2) resistant MKN45 gastric cancer cell line) is listed as “resistant”. For the same molecule, the “cell proliferation inhibition effect” value is reported as “has a cell proliferation inhibition effect” in assay [4] and “does not exhibit a cell proliferation inhibition effect” in assay [5].
